# B1: mRNA-splicing (parent)
# chain: AGUUGCUGCUGGGAGCUCCAGCACAGUGAAAUGGACAGAAGGGCAGAGCAA
# Variants of: B1
# Test: exon inclusion enrichment index; higher = more inclusion; WT1 exon 5 minigene, HEK293
row,Variant,exon inclusion enrichment index
1,C44G A45G,0.0345
2,C44G A45U,0.0615
3,C44G A45C,0.399
4,A47C G48U,0.173
5,A47C G48C,0.171
6,A47C G48A,0.0773
7,G46A A47G,0.0433
8,G46A A47U,0.185
9,G46A A47C,0.547
10,G48U,0.288
11,G48A,0.46
12,G48C,0.292
13,C44U,0.0165
14,C44G,0.391
15,C44A,0.507
16,G46A,0.245
17,G46C,0.155
18,G46U,0.0964
19,G41U G42U,0.192
20,G41U G42C,0.49
21,G41U G42A,0.0358

row,Variant,exon inclusion enrichment index
1,A45G G46A,0.84
2,A45G G46C,0.331
3,A45G G46U,0.121
4,G43A C44U,0.129
5,G43A C44G,0.723
6,G43A C44A,0.778
7,A47U,0.105
8,A47C,0.293
9,A47G,0.0334
10,G46C A47C,0.227
11,G46C A47G,0.339
12,G46C A47U,0.224
13,G43U C44A,0.00923
14,G43U C44G,0.0978
15,G43U C44U,0.0355
16,C44A A45U,0.469
17,C44A A45G,0.233
18,C44A A45C,0.767
19,G46U A47U,0.237
20,G46U A47C,0.692
21,G46U A47G,0.116

row,Variant,exon inclusion enrichment index
1,C44U A45U,0.0412
2,C44U A45G,0.0801
3,C44U A45C,0.266
4,G43C C44G,1.62
5,G43C C44U,0.086
6,G43C C44A,0.932
7,A47G G48U,0.00564
8,A47G G48A,0.0368
9,A47G G48C,0.0501
10,A45C G46A,0.0421
11,A45C G46C,0.068
12,A45C G46U,0.0235
13,A45U G46U,0.0239
14,A45U G46C,0.0947
15,A45U G46A,0.0722
16,G41C G42A,0.238
17,G41C G42C,0.703
18,G41C G42U,0.907
19,G42A,0.734
20,G42C,0.853
21,G42U,0.329

row,Variant,exon inclusion enrichment index
1,G42A G43C,2.4
2,G42A G43A,1.43
3,G42A G43U,1.63
4,A45U,0.318
5,A45G,0.486
6,A45C,0.223
7,A47U G48A,0.123
8,A47U G48U,0.125
9,A47U G48C,0.106
10,G41U,0.16
11,G41C,0.866
12,G42C G43A,0.623
13,G42C G43C,0.757
14,G42C G43U,0.634
15,G43A,0.774
16,G43U,0.11
17,G43C,0.209
18,G42U G43A,0.492
19,G42U G43U,0.54
20,G42U G43C,0.112
